± gives the uncertainty stated by the source.
Assay: protein stability index of a GFP-peptide fusion (yeast GPS) (PSI 1-4); higher = more stable; sorted into four equal gates, so the index is relative within each strain
In short: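 Tiled 17-residue peptides from yeast proteins were fused downstream of GFP on a plasmid that also expresses Cherry, and the pooled library was carried in yeast. Mid-log cultures grown in leucine-free medium were sorted into four equal gates by GFP/Cherry fluorescence ratio. Plasmids from each gate were PCR-amplified and Illumina-sequenced, and reads were assigned to strains by barcodes. Each peptide's protein stability index is the sum, over gates, of the gate's read frequency multiplied by its gate number.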

Row | Sequence | protein stability index (doa10∆) | protein stability index (pdr5∆) | protein stability index (san1∆) | protein stability index (ubr1∆)
1 | SGKARICIVGGYDDFQE [FAS2] | 2.91 ± 0.15 | 2.24 ± 0.1 | 3.36 ± 0.11 | 1.56 ± 0.17
2 | LTVFYAIKKFKTEKDGV [SSN3] | 2.17 ± 0.12 | 1.74 ± 0.057 | 2.42 ± 0.061 | 1.97 ± 0.085
3 | KVTLNKETQQYELEFDT [BRR2] | 3.13 ± 0.058 | 3.01 ± 0.056 | 3.15 ± 0.035 | 3.19 ± 0.038
4 | VKSFKPHLLKQGLAMVE [RRP42] | 2.01 ± 0.13 | 2.35 ± 0.1 | – | 2.29 ± 0.2
5 | EAVIDEKLEVIADELMK [ITC1] | – | – | 3.21 ± 0.25 | 3.27 ± 0.12
6 | PEDALVNDFSDITSDQL [SMC3] | 3.32 ± 0.076 | 2.85 ± 0.091 | 3.15 ± 0.081 | 3.31 ± 0.062
7 | KAINQELEDVAVKKLYA [YCS4] | 3.26 ± 0.17 | 3.23 ± 0.13 | 2.72 ± 0.07 | 2.94 ± 0.08
8 | PEYGRIIASASYDKTVK [YGL100W/SEH1] | 2.27 ± 0.079 | 2.28 ± 0.082 | 3.03 ± 0.087 | 2.11 ± 0.056
9 | TDNVSMYPSPTGVMIGI [PRP8] | 2.65 ± 0.065 | 2.41 ± 0.063 | 2.02 ± 0.086 | 2.3 ± 0.041
10 | GHNDWVSQVRVVPNEKA [ASC1] | 2.3 ± 0.1 | 2.85 ± 0.076 | 2.94 ± 0.066 | 2.69 ± 0.065
11 | CELQVETYGSMEMSEKI [RPN5] | 2.76 ± 0.096 | 2.96 ± 0.074 | 2.71 ± 0.071 | 2.84 ± 0.077
12 | AKALESLASCLRSTEYS [POP1] | 3.08 ± 0.16 | 3.25 ± 0.14 | 2.8 ± 0.13 | 2.61 ± 0.17
13 | IRKQPDDIINNDEPSHK [SIR2] | 2.91 ± 0.065 | 2.95 ± 0.039 | 2.94 ± 0.04 | 2.83 ± 0.039
14 | AKKQNRPLPQWIRLRTN [RPL39] | 1.95 ± 0.063 | 2.69 ± 0.043 | 1.26 ± 0.082 | 2.44 ± 0.043
15 | NDENDDEFYINVDKNLN [RPN14] | 2.96 ± 0.19 | 2.72 ± 0.12 | 2.94 ± 0.11 | 3.05 ± 0.12
16 | MARRPARCYRYQKNKPY [RPL10] | 2.17 ± 0.092 | 2.13 ± 0.11 | 2.32 ± 0.092 | 2.4 ± 0.1
17 | SETREKELESIDVLLEQ [RPB4] | 3.04 ± 0.13 | 3.11 ± 0.096 | 2.86 ± 0.11 | 3 ± 0.095
18 | NILFSLWKLLSTVKVSD [YLR018C/POM34] | 1.76 ± 0.07 | 1.46 ± 0.058 | 1.58 ± 0.12 | 1.55 ± 0.057
19 | FMGTAFNQEGDYNFKYG [PRP8] | 3.02 ± 0.11 | 3.1 ± 0.09 | 3.34 ± 0.098 | 3.18 ± 0.072
20 | GNDNNSDSNANAAVAGV [SWI3] | 3.21 ± 0.057 | 3.35 ± 0.056 | 3.31 ± 0.029 | 3.18 ± 0.058
21 | HNQSPRNTYQSAMGKQA [RPB2] | 2.48 ± 0.063 | 2.77 ± 0.062 | 2.37 ± 0.06 | 2.25 ± 0.039
22 | LSSLILKIFQEQSLEVF [SRB8] | 2.5 ± 0.087 | 2.67 ± 0.12 | 2.88 ± 0.09 | 2.71 ± 0.1
23 | LLVQKRFKYAPGTIVLY [RPS3] | 2.51 ± 0.12 | 1.87 ± 0.073 | 1.72 ± 0.13 | 1.31 ± 0.039
24 | KNYLKNYILNFKQSNSE [CDC53] | 2.6 ± 0.044 | 1.95 ± 0.043 | 2.34 ± 0.083 | 1.89 ± 0.037
25 | KAEKKVELHGKRKLDIG [PRP8] | – | 2.8 ± 0.17 | 3.13 ± 0.16 | –
26 | IIVKDKSNDSEGDFLKS [POP1] | 3.06 ± 0.3 | – | 3.14 ± 0.11 | –
27 | LPSSNGSSRIIASDGSE [RRP42] | 3.08 ± 0.091 | 2.86 ± 0.11 | 3.17 ± 0.11 | 2.74 ± 0.085

Row | Sequence | protein stability index (doa10∆) | protein stability index (pdr5∆) | protein stability index (san1∆) | protein stability index (ubr1∆)
28 | SRENNSEYMVFGKLAFP [YJL039C/NUP192] | 2.49 ± 0.064 | 2.54 ± 0.072 | 2.97 ± 0.069 | 2.79 ± 0.082
29 | VNIVEKDGAKFIEVRNF [RPL9A] | 3.38 ± 0.19 | – | 3.02 ± 0.2 | 1.71 ± 0.24
30 | PNIVEIDLDNDEDDDED [DLS1] | 3.17 ± 0.084 | 3.29 ± 0.065 | 2.89 ± 0.1 | 3.04 ± 0.15
31 | DKDSTKEVASLPNKSTI [FAS2] | 3.13 ± 0.089 | 3.1 ± 0.12 | 3.02 ± 0.072 | 3.21 ± 0.14
32 | CVRVQLIKNGKKVTAFV [RPS23A] | 2.59 ± 0.085 | 2.66 ± 0.093 | 3.16 ± 0.13 | 3.13 ± 0.088
33 | SLPFLLRHMPLASIPDI [SSN2] | 1.94 ± 0.072 | 1.69 ± 0.055 | 1.5 ± 0.072 | 1.44 ± 0.045
34 | GYDRHITIFSPEGRLYQ [SCL1] | 2.76 ± 0.11 | 2.84 ± 0.082 | 2.96 ± 0.057 | 3.06 ± 0.077
35 | ADTIDHDELIDSIPRDV [YGL172W/NUP49] | 2.95 ± 0.098 | 3.24 ± 0.085 | 3.07 ± 0.056 | 2.88 ± 0.075
36 | DYIKDEQRHLKRELKRA [RPT3] | 2.25 ± 0.058 | 2.06 ± 0.056 | 1.98 ± 0.14 | 1.68 ± 0.037
37 | SSPEEPFMSYSPQLTAI [SNF12] | 2.45 ± 0.065 | 2.79 ± 0.063 | 2.7 ± 0.066 | 2.77 ± 0.051
38 | RLAKKPSMKKIKIEPSA [SIR3] | 2.48 ± 0.094 | 3.06 ± 0.099 | 2.76 ± 0.071 | 2.88 ± 0.065
39 | LANYLTSALSELSGLIS [QCR2] | 1.48 ± 0.047 | 1.88 ± 0.044 | 1.84 ± 0.064 | 1.59 ± 0.033
40 | FKSPIDNSESHPFIPLL [RRP6] | 1.95 ± 0.07 | 2.23 ± 0.053 | 2.03 ± 0.075 | 1.82 ± 0.052
41 | NIGTPSFNMAQIPQQLY [SNF5] | 1.93 ± 0.068 | 2.08 ± 0.072 | 2.17 ± 0.056 | 2.04 ± 0.047
42 | LFDAAFYMKKDAVEGVS [RPO31] | 2.75 ± 0.24 | 2.96 ± 0.14 | 3.31 ± 0.076 | 2.65 ± 0.11
43 | KKFLRVRIFTKIESEDD [SRB4] | 1.46 ± 0.092 | 1.26 ± 0.089 | 1.16 ± 0.13 | 1.11 ± 0.083
44 | NTFQKTVEPVYQMHIKT [FAS1] | 1.68 ± 0.038 | 1.78 ± 0.046 | 1.58 ± 0.062 | 1.5 ± 0.059
45 | LESDFVTGASQFQRLAP [PRE2] | 2.88 ± 0.094 | 2.97 ± 0.11 | 3.17 ± 0.086 | 2.87 ± 0.067
46 | TWIHSEIEELKSSIQNL [SMC3] | 2.27 ± 0.11 | 2.3 ± 0.068 | 2.29 ± 0.21 | 3.08 ± 0.11
47 | IAKSQDKKSCSVDDVLS [DPB4] | 3.28 ± 0.057 | 3.15 ± 0.077 | 3.22 ± 0.055 | 3.16 ± 0.039
48 | VVDTEETATLIMNELYR [SMC3] | 3.02 ± 0.086 | 3.17 ± 0.11 | 2.79 ± 0.1 | 3.03 ± 0.096
49 | DLKSKADKLADMANEII [RRP6] | 3.38 ± 0.15 | 3.17 ± 0.12 | 3.19 ± 0.082 | 3.16 ± 0.085
50 | VLEDVYRCFAQLELRQL [RRI2] | 2.15 ± 0.25 | 2.61 ± 0.17 | 2.5 ± 0.12 | 2.67 ± 0.17
51 | WQSGLKMYDYEEKEESN [RPN11] | 2.98 ± 0.13 | 3.26 ± 0.13 | 2.93 ± 0.1 | 3 ± 0.16
52 | ELRFPSPTPIQRITIPN [PRP28] | 2.02 ± 0.093 | 2.19 ± 0.071 | 1.85 ± 0.081 | 2.06 ± 0.058
53 | TMGMRALLKLSVKLKQK [DIS3] | 1.28 ± 0.059 | 1.59 ± 0.063 | 1.21 ± 0.072 | 1.33 ± 0.07
54 | LQLIIFLRTQFLKLYVL [RGR1] | 1.25 ± 0.1 | 1.4 ± 0.11 | 1.53 ± 0.12 | 1.41 ± 0.091

From the supplement of paper PMC9732359
